Laboratory results reported in the supplement of paper PMC12855868.

B1: library; numbered along this chain (parent)
chain: MAAAGGARLLRAASAVLGGPAGRWLHHAGSRAGSSGLLRNRGPGGSAEASRSLSVSARARSSSEDKITVHFINRDGETLTTKGKVGDSLLDVVVENNLDIDGFGACEGTLACSTCHLIFEDHIYEKLDAITDEENDMLDLAYGLTDRSRLGCQICLTKSMDNMTVRVPETVADARQSIDVGKTS

Variants of: B1
Assay: scaled log2 fold change in cell abundance, elesclomol vs control (0 = silent mean, 1 = nonsense mean) (scaled log2 ratio); higher = higher viability under elesclomol (loss of FDX1 cuproptosis function)
Conditions: glucose 10 mM
[1] = with ABC1 FDX1 KO, elesclomol 5 nM, 14 days
[2] = with HEK293T FDX1 KO, elesclomol 40 nM, 11 days
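Note: variant abundance is its share of total variant reads in each endpoint sample, from next-generation sequencing of the integrated ORF PCR-amplified out of genomic DNA.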

M160D
scaled log2 fold change [1]: -0.132
scaled log2 fold change [2]: 0.103

M160K
scaled log2 fold change [1]: -0.0408
scaled log2 fold change [2]: 1.28

M160G
scaled log2 fold change [1]: 0.381
scaled log2 fold change [2]: 0.247

M160P
scaled log2 fold change [1]: 1.06
scaled log2 fold change [2]: 1.11

S56L
scaled log2 fold change [1]: 0.557
scaled log2 fold change [2]: 1.06

S56R
scaled log2 fold change [1]: 0.43

G5R
scaled log2 fold change [1]: -0.43
scaled log2 fold change [2]: -0.244

G5F
scaled log2 fold change [1]: 0.228
scaled log2 fold change [2]: 0.695

S35V
scaled log2 fold change [1]: 0.123
scaled log2 fold change [2]: -0.55

S35T
scaled log2 fold change [1]: -0.263
scaled log2 fold change [2]: 0.526

S34Y
scaled log2 fold change [1]: 0.029
scaled log2 fold change [2]: -0.188

S34D
scaled log2 fold change [1]: 0.0928
scaled log2 fold change [2]: -0.389

L37M
scaled log2 fold change [1]: 0.0458
scaled log2 fold change [2]: 0.0807

L10W
scaled log2 fold change [1]: -0.304
scaled log2 fold change [2]: 0.734

L10T
scaled log2 fold change [1]: 0.0611

E64C
scaled log2 fold change [1]: -0.0781
scaled log2 fold change [2]: 0.793

E64M
scaled log2 fold change [1]: -0.109
scaled log2 fold change [2]: -0.0994

A3L
scaled log2 fold change [1]: -0.261
scaled log2 fold change [2]: 0.507

A3P
scaled log2 fold change [1]: 0.16
scaled log2 fold change [2]: -0.173

A3K
scaled log2 fold change [1]: 0.135
scaled log2 fold change [2]: 0.17

A3R
scaled log2 fold change [1]: 0.464
scaled log2 fold change [2]: -0.63

P20C
scaled log2 fold change [1]: 0.163
scaled log2 fold change [2]: -0.287

P20H
scaled log2 fold change [1]: -0.216
scaled log2 fold change [2]: 0.0304

P20N
scaled log2 fold change [1]: -0.129

R175T
scaled log2 fold change [1]: 0.48
scaled log2 fold change [2]: 0.313

R149V
scaled log2 fold change [1]: 0.231
scaled log2 fold change [2]: 0.529

A111E
scaled log2 fold change [1]: -0.193
scaled log2 fold change [2]: 1.05

A111F
scaled log2 fold change [1]: -1.42
scaled log2 fold change [2]: 0.414

A111Y
scaled log2 fold change [1]: -1.01
scaled log2 fold change [2]: 0.214

A111V
scaled log2 fold change [1]: -0.00247
scaled log2 fold change [2]: -0.469

S14M
scaled log2 fold change [1]: 0.348
scaled log2 fold change [2]: 0.298

S62M
scaled log2 fold change [1]: 0.0792

F103A
scaled log2 fold change [1]: 0.92
scaled log2 fold change [2]: 0.527

S177R
scaled log2 fold change [1]: -0.0538
scaled log2 fold change [2]: -0.798

T145M
scaled log2 fold change [1]: 0.318
scaled log2 fold change [2]: -0.375

A13R
scaled log2 fold change [1]: -0.131
scaled log2 fold change [2]: 0.251

A13I
scaled log2 fold change [1]: -0.0121
scaled log2 fold change [2]: 0.147

S46M
scaled log2 fold change [1]: 0.376
scaled log2 fold change [2]: 0.185

S46P
scaled log2 fold change [1]: 0.0875
scaled log2 fold change [2]: 0.866

R23M
scaled log2 fold change [1]: 0.474
scaled log2 fold change [2]: -0.139

R23Y
scaled log2 fold change [1]: -0.603

P168D
scaled log2 fold change [1]: 0.403
scaled log2 fold change [2]: 1.03

P168L
scaled log2 fold change [1]: 0.485
scaled log2 fold change [2]: 0.478

L156M
scaled log2 fold change [1]: -0.318
scaled log2 fold change [2]: -0.383

K82M
scaled log2 fold change [1]: 0.172

K82W
scaled log2 fold change [1]: 0.0928
scaled log2 fold change [2]: -0.0187

L9M
scaled log2 fold change [1]: 0.105
scaled log2 fold change [2]: 0.772

L9R
scaled log2 fold change [1]: 0.455
scaled log2 fold change [2]: -0.0809

A7K
scaled log2 fold change [1]: 0.136
scaled log2 fold change [2]: -0.253

A7D
scaled log2 fold change [1]: 0.0271
scaled log2 fold change [2]: 0.843

G29C
scaled log2 fold change [1]: 0.0521
scaled log2 fold change [2]: -0.731

V92K
scaled log2 fold change [1]: 0.913
scaled log2 fold change [2]: 0.724

V92A
scaled log2 fold change [1]: 0.494
scaled log2 fold change [2]: -0.354

C152T
scaled log2 fold change [1]: 1.06
scaled log2 fold change [2]: 1.22

C152G
scaled log2 fold change [1]: 1.06
scaled log2 fold change [2]: 1.28

D91G
scaled log2 fold change [1]: 0.216
scaled log2 fold change [2]: 0.254

D91T
scaled log2 fold change [1]: 0.169

D91L
scaled log2 fold change [1]: 0.217
scaled log2 fold change [2]: -0.127

I118E
scaled log2 fold change [1]: -0.0205
scaled log2 fold change [2]: -0.0505

I118K
scaled log2 fold change [1]: 0.00843
scaled log2 fold change [2]: 0.202

M137V
scaled log2 fold change [1]: -0.0968
scaled log2 fold change [2]: -0.154

A2I
scaled log2 fold change [1]: -0.127
scaled log2 fold change [2]: -0.279

G104P
scaled log2 fold change [1]: 1.02
scaled log2 fold change [2]: 0.598

G104S
scaled log2 fold change [1]: 0.931
scaled log2 fold change [2]: 0.363

D161A
scaled log2 fold change [1]: -0.111

G151S
scaled log2 fold change [1]: 0.0704
scaled log2 fold change [2]: -0.359

G151T
scaled log2 fold change [1]: 0.645
scaled log2 fold change [2]: 0.96

R8D
scaled log2 fold change [1]: 0.629
scaled log2 fold change [2]: -0.108

R8P
scaled log2 fold change [1]: 0.109
scaled log2 fold change [2]: -0.395

R8M
scaled log2 fold change [1]: -0.909
scaled log2 fold change [2]: -0.722

T157V
scaled log2 fold change [1]: -0.108
scaled log2 fold change [2]: -0.969

G44N
scaled log2 fold change [1]: 0.0836
scaled log2 fold change [2]: -0.289

N40F
scaled log2 fold change [1]: -0.01
scaled log2 fold change [2]: 0.266

V167C
scaled log2 fold change [1]: -0.124
scaled log2 fold change [2]: 0.517

L90I
scaled log2 fold change [1]: -0.268
scaled log2 fold change [2]: 0.924

T114H
scaled log2 fold change [1]: -0.00732
scaled log2 fold change [2]: 0.334

T114P
scaled log2 fold change [1]: 1.01
scaled log2 fold change [2]: 0.956

T114K
scaled log2 fold change [1]: 0.766
scaled log2 fold change [2]: 0.199

N135P
scaled log2 fold change [1]: 0.887
scaled log2 fold change [2]: 0.821

D179Q
scaled log2 fold change [1]: 0.442
scaled log2 fold change [2]: -0.984

A172Q
scaled log2 fold change [1]: 0.194
scaled log2 fold change [2]: 0.591

A172N
scaled log2 fold change [1]: -0.267
scaled log2 fold change [2]: -0.223

A172G
scaled log2 fold change [1]: -0.0465
scaled log2 fold change [2]: 0.05

D75N
scaled log2 fold change [1]: -0.329
scaled log2 fold change [2]: 0.364

L79E
scaled log2 fold change [1]: 0.0989
scaled log2 fold change [2]: -0.00345

L79A
scaled log2 fold change [1]: 0.253
scaled log2 fold change [2]: 0.232

G45T
scaled log2 fold change [1]: 0.167
scaled log2 fold change [2]: -0.525

G45H
scaled log2 fold change [1]: 0.0762
scaled log2 fold change [2]: 0.865

G45I
scaled log2 fold change [1]: -0.00298
scaled log2 fold change [2]: -0.325

G45Y
scaled log2 fold change [1]: 0.16
scaled log2 fold change [2]: 0.922

V55I
scaled log2 fold change [1]: 0.323
scaled log2 fold change [2]: 1.26

T164R
scaled log2 fold change [1]: -0.0678
scaled log2 fold change [2]: -0.0374

T164G
scaled log2 fold change [1]: 0.367
scaled log2 fold change [2]: -0.293

A174R
scaled log2 fold change [1]: -0.108
scaled log2 fold change [2]: 0.908

N73E
scaled log2 fold change [1]: 0.311
scaled log2 fold change [2]: 0.823

D87R
scaled log2 fold change [1]: -0.147

D87E
scaled log2 fold change [1]: -0.224
scaled log2 fold change [2]: 0.0766

V165Y
scaled log2 fold change [1]: 1.03
scaled log2 fold change [2]: 1.38

V165H
scaled log2 fold change [1]: 1.12
scaled log2 fold change [2]: 0.873

A141S
scaled log2 fold change [1]: -0.0824
scaled log2 fold change [2]: 0.987

Q176G
scaled log2 fold change [1]: -0.184
scaled log2 fold change [2]: -0.11

Q176L
scaled log2 fold change [1]: -0.0736
scaled log2 fold change [2]: -0.65

Q176M
scaled log2 fold change [1]: 0.291

D99Q
scaled log2 fold change [1]: 0.0501
scaled log2 fold change [2]: -1.25

V85S
scaled log2 fold change [1]: 0.131
scaled log2 fold change [2]: -0.121

V85Y
scaled log2 fold change [1]: -0.534
scaled log2 fold change [2]: -0.0166

C155Y
scaled log2 fold change [1]: -0.378
scaled log2 fold change [2]: -0.939

H26Y
scaled log2 fold change [1]: 0.147
scaled log2 fold change [2]: -0.00505

H26D
scaled log2 fold change [1]: 0.267
scaled log2 fold change [2]: 0.193

Y142N
scaled log2 fold change [1]: -0.329

Y142D
scaled log2 fold change [1]: -0.228
scaled log2 fold change [2]: 1.12

Y142K
scaled log2 fold change [1]: 0.0326

S63N
scaled log2 fold change [1]: -0.0613
scaled log2 fold change [2]: -0.00891

S63H
scaled log2 fold change [1]: 0.197
scaled log2 fold change [2]: 0.218

Y124R
scaled log2 fold change [1]: 0.234
scaled log2 fold change [2]: -0.258

Y124F
scaled log2 fold change [1]: -0.497
scaled log2 fold change [2]: -0.225

S54C
scaled log2 fold change [1]: -0.019
scaled log2 fold change [2]: -0.176

S54D
scaled log2 fold change [1]: -0.0274
scaled log2 fold change [2]: -0.0231

S54T
scaled log2 fold change [1]: 0.484
scaled log2 fold change [2]: -0.46
